Holding throughout (test): SPR
On the technique in general: SPR reads the build-up and loss of mass on a sensor chip optically.

Experiment [1] has as its target T1, Recombinant SERPINA1 protein (alpha-1 antitrypsin) (human, UniProt P01009 25-418).
For experiment [2], the target named is T2, Recombinant SERPINE1 protein (plasminogen activator inhibitor 1) (human, UniProt P05121 24-402).
Experiment [3] concerns the target T3, Recombinant SERPINC1 protein (antithrombin III) (human, UniProt P01008 33-464).
The target of experiment [4] is T1, Recombinant SERPINA1 protein (alpha-1 …). The source holds these as a separate data set.
Experiment [5] addresses T2, Recombinant SERPINE1 protein …. The source holds these as a separate data set.
Experiment [6] has as its target T3, Recombinant SERPINC1 protein …. The source holds these as a separate data set.

T2 sequence (P05121 24-402): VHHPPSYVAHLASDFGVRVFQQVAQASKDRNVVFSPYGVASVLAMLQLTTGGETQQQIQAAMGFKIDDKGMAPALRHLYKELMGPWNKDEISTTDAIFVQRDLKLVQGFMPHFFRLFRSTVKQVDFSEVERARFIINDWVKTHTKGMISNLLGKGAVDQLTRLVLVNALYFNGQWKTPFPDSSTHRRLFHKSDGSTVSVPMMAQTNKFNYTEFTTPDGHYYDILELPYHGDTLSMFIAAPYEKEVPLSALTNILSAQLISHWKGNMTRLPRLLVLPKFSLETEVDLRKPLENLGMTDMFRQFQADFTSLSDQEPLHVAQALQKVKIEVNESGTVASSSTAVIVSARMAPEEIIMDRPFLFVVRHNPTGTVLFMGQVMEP
T3 sequence (P01008 33-464): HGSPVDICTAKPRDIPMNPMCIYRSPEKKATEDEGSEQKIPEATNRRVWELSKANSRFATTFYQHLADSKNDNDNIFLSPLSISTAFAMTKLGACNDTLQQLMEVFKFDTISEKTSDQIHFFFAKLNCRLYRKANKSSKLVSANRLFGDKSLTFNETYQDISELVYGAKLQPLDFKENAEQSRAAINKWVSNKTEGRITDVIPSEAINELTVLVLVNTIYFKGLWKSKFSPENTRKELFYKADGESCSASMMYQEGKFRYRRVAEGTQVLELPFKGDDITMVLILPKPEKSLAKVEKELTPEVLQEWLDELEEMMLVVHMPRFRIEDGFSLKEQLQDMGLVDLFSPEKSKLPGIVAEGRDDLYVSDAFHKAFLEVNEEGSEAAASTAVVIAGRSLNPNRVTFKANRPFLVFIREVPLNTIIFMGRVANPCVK
T1 sequence (P01009 25-418): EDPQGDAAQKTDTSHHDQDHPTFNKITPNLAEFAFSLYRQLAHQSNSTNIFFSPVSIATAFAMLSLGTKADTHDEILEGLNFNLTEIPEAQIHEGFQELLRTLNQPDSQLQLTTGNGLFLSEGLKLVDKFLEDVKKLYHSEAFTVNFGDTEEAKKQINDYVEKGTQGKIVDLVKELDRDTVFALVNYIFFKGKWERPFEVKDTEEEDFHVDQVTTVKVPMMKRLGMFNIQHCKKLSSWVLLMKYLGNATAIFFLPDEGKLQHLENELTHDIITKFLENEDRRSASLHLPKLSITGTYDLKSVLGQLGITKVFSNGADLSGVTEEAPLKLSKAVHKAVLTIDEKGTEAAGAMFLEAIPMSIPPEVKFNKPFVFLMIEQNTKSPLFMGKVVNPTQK

B1: Active recombinant TMPRSS2 (transmembrane serine protease 2) (enzyme)
chain: not shown
In general, Kd refers to the free concentration of one partner at which half of the binding sites on the other are occupied at equilibrium, for simple one-to-one binding. As a reminder, the koff is the rate constant with which the complex falls apart. For the molecule B1, the Kd in experiment [1] came to 0.0208 µM; in experiment [2], 0.0095 µM; in experiment [3], 0.0179 µM. For the same molecule, the koff in experiment [4] is 0.00377 s⁻¹; in experiment [5] it was 0.00253 s⁻¹; in experiment [6], 0.00324 s⁻¹.

B2: Tissue plasminogen activator (enzyme)
chain: SYQVICRDEKTQMIYQQHQSWLRPVLRSNRVEYCWCNSGRAQCHSVPVKSCSEPRCFNGGTCQQALYFSDFVCQCPEGFAGKCCEIDTRATCYEDQGISYRGTWSTAESGAECTNWNSSALAQKPYSGRRPDAIRLGLGNHNYCRNPDRDSKPWCYVFKAGKYSSEFCSTPACSEGNSDCYFGNGSAYRGTHSLTESGASCLPWNSMILIGKVYTAQNPSAQALGLGKHNYCRNPDGDAKPWCHVLKNRRLTWEYCDVPSCSTCGLRQYSQPQFRIKGGLFADIASHPWQAAIFAKHRRSPGERFLCGGILISSCWILSAAHCFQERFPPHHLTVILGRTYRVVPGEEEQKFEVEKYIVHKEFDDDTYDNDIALLQLKSDSSRCAQESSVVRTVCLPPADLQLPDWTECELSGYGKHEALSPFYSERLKEAHVRLYPSSRCTSQHLLNRTVTDNMLCAGDTRSGGPQANLHDACQGDSGGPLVCLNDGRMTLVGIISWGLGCGQKDVPGVYTKVTNYLDWIRDNMRP
In the case of B2, the Kd in experiment [2] was found to be 0.246 µM. The koff in experiment [5] was 0.00787 s⁻¹.

Values taken from publication PMC9239148 (2022).
